# T1: GST-Dyn1xA-PRR (dynamin 1xA proline-rich region, amino acids 746-864) (rat, UniProt P21575 746-864)
# T1 construct: also called full-length Dyn1xA-PRR; source: E. coli JM109; GST fusion on GSH-sepharose beads (pull-down), GST-tagged in solution (ELISA)
# T1 sequence (looked up): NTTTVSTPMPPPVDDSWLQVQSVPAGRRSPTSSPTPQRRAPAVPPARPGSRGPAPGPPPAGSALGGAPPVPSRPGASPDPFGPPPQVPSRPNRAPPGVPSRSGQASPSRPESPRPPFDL
# T2: GST-dyn1xA-PRR R838A (rat, UniProt P21575 746-864, R838A)
# T2 construct: also called R838A (Dyn1xA-PRR); source: E. coli JM109; GST fusion on GSH-sepharose beads
# T2 sequence (looked up): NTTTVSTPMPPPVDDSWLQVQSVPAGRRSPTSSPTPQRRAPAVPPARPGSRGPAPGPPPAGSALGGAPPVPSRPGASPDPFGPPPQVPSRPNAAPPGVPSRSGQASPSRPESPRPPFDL
# T3: Dyn1xA-PRR 746-864 (GST tag removed) (rat, UniProt P21575 746-864)
# T3 construct: For SEC-MALS the removal is surmised from the predicted 19.4 kDa of the 1:1 complex; source: E. coli, 15N- or 15N,13C-labelled for NMR, GST cleaved, purified by gel filtration
# T3 sequence (looked up): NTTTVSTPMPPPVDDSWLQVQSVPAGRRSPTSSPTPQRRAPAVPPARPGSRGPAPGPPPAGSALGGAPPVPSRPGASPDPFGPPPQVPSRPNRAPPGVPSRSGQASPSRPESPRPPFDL
# B1: His-tagged mouse Endophilin A1 SH3 domain (domain or fragment)
# chain: not shown
# notes: Endophilin A1, mouse, SH3 domain; The methods describe only a GST-Endophilin A1-SH3 construct (mouse, amino acids 292-352); the His-tagged construct of the ELISA is not described; also called His-tagged mouse Endophilin-SH3 domain
# Columns and labels:
# [1] = molecular target: T1, GST-Dyn1xA-PRR (dynamin 1xA …); assay: ELISA; His-tagged mouse Endophilin A1 SH3 domain coated onto a 96-well plate, overlaid with increasing concentrations of GST-tagged Dyn1-PRR peptides; two experiments with four replicates each; settings: both partners purified
# [2] = molecular target: B1; assay: as above; settings: both partners purified
# GST-dyn1xA-PRR R838A = molecular target: T2, GST-dyn1xA-PRR R838A; assay: pull-down; GST fusion proteins on GSH-sepharose beads incubated with pre-cleared rat brain synaptosomal lysate (20 mM Tris pH 7.4, 150 mM NaCl, 1% Triton X-100, 1 mM EDTA, 1 mM EGTA) at 4 °C for 1 h; bound proteins by Coomassie stain or Western blot (some blots quantified by densitometry); settings: one partner purified
# [3] = molecular target: T3, Dyn1xA-PRR 746-864 (GST tag removed); assay: SEC-MALS; Superdex 75 10/300 GL, 20 mM HEPES, 100 mM NaCl, 1 mM DTT, 1 mM PMSF, pH 7.2; complex at 0.5 mg and diluted to one third (0.167 mg); settings: both partners purified
binder,measurement,setting,value
B1,Kd,[1],44 nM
"GST-Dyn1xA-PRR 806-864 (domain or fragment, rat, UniProt P21575 806-864, looked up, source: E. coli JM109; GST fusion on GSH-sepharose beads (pull-down), GST-tagged in solution (ELISA)) GSALGGAPPVPSRPGASPDPFGPPPQVPSRPNRAPPGVPSRSGQASPSRPESPRPPFDL",fold difference in affinity from xA 746-864,[2],< 2 fold
same,fold higher affinity than xA 751-798,[2],5 fold
"Endophilin A1 (natural protein, UniProt O35179 1-352, looked up, Endophilin-A1, rat, endogenous full-length protein of nerve terminals; The Western blots are probed with antibodies to Endophilin A; also called 40 kDa protein; source: endogenous, rat brain synaptosomal lysate) MSVAGLKKQFHKATQKVSEKVGGAEGTKLDDDFKEMERKVDVTSRAVMEIMTKTIEYLQPNPASRAKLSMINTMSKIRGQEKGPGYPQAEALLAEAMLKFGRELGDDCNFGPALGEVGEAMRELSEVKDSLDMEVKQNFIDPLQNLHDKDLREIQHHLKKLEGRRLDFDYKKKRQGKIPDEELRQALEKFDESKEIAESSMFNLLEMDIEQVSQLSALVQAQLEYHKQAVQILQQVTVRLEERIRQASSQPRREYQPKPRMSLEFATGDGTQPNGGLSHTGTPKPAGVQMDQPCCRALYDFEPENEGELGFKEGDIITLTNQIDENWYEGMLHGQSGFFPINYVEILVALPH",binding relative to wild-type Dyn1xA-PRR (median),GST-dyn1xA-PRR R838A,68.2%
"Amphiphysin 1 (natural protein, UniProt O08838 1-683, looked up, Amphiphysin 1, rat, endogenous in synaptosomes, detected by Western blot; also called Amphiphysin I; source: endogenous, rat brain synaptosomal lysate) MADIKTGIFAKNVQKRLNRAQEKVLQKLGKADETKDEQFEEYVQNFKRQEAEGTRLQRELRGYLAAIKGMQEASMKLTESLHEVYEPDWYGREDVKMVGEKCDVLWEDFHQKLVDGSLLTLDTYLGQFPDIKNRIAKRSRKLVDYDSARHHLEALQSSKRKDESRISKAEEEFQKAQKVFEEFNVDLQEELPSLWSRRVGFYVNTFKNVSSLEAKFHKEIAVLCHKLYEVMTKLGDQHADKAFSIQGAPSDSGPLRIAKTPSPPEEASPLPSPTASPNHTLAPASPAPVRPRSPSQTRKGPPVPPLPKVTPTKELQQENIINFFEDNFVPEINVTTPSQNEVLEVKKEETLLDLDFDPFKPDVTPAGSAAATHSPMSQTLPWDLWTTSTDLVQPASGGSFNDFTQPQDTSLFTMQTDQNMAETEQALPTEPQAEEPPTTAAAPTAGLDLGLEMEEPKEEAAIPPGTDAGETVGTEGSTGEEAEAEKAALPAGEGESPEGAKIDVESTELASSESPQAAELEAGAPQEKVIPSVVIEPASNHEGEEHQETTTGTETREATEDVAPQGPAGEKQELATEPTPLDSQAATPAPAGAVDASLSAGDAAQELPPGFLYKVETLHDFEAANSDELTLQRGDVVLVVPSDSEADQDAGWLVGVKESDWLQYRDLATYKGLFPENFTRHLE",binding relative to wild-type Dyn1xA-PRR (median),GST-dyn1xA-PRR R838A,14.2%
"Endophilin A1 SH3 domain (GST tag removed) (domain or fragment, Endophilin A1, mouse, SH3 domain, amino acids 292-352 (methods); the results print residues D291-H352; Cleavage is stated for the NMR experiments; for SEC-MALS it is surmised from the predicted 19.4 kDa of the 1:1 complex; also called endophilin SH3; Endophilin A SH3; source: E. coli JM109, GST fusion, GST cleaved, purified by gel filtration) not shown",stoichiometry N,[3],1

# Source: article PMC11329700, “Dynamin 1xA interacts with Endophilin A1 via its spliced long C-terminus for ultrafast endocytosis” (The EMBO Journal, 2024)
